B1: His-tagged full length PGC-1α (natural protein, UniProt O70343 1-797, looked up)
chain: MAWDMCSQDSVWSDIECAALVGEDQPLCPDLPELDLSELDVNDLDTDSFLGGLKWCSDQSEIISNQYNNEPANIFEKIDEENEANLLAVLTETLDSLPVDEDGLPSFDALTDGAVTTDNEASPSSMPDGTPPPQEAEEPSLLKKLLLAPANTQLSYNECSGLSTQNHAANHTHRIRTNPAIVKTENSWSNKAKSICQQQKPQRRPCSELLKYLTTNDDPPHTKPTENRNSSRDKCASKKKSHTQPQSQHAQAKPTTLSLPLTPESPNDPKGSPFENKTIERTLSVELSGTAGLTPPTTPPHKANQDNPFKASPKLKPSCKTVVPPPTKRARYSECSGTQGSHSTKKGPEQSELYAQLSKSSGLSRGHEERKTKRPSLRLFGDHDYCQSLNSKTDILINISQELQDSRQLDFKDASCDWQGHICSSTDSGQCYLRETLEASKQVSPCSTRKQLQDQEIRAELNKHFGHPCQAVFDDKSDKTSELRDGDFSNEQFSKLPVFINSGLAMDGLFDDSEDESDKLSYPWDGTQPYSLFDVSPSCSSFNSPCRDSVSPPKSLFSQRPQRMRSRSRSFSRHRSCSRSPYSRSRSRSPGSRSSSRSCYYYESSHYRHRTHRNSPLYVRSRSRSPYSRRPRYDSYEAYEHERLKRDEYRKEHEKRESERAKQRERQKQKAIEERRVIYVGKIRPDTTRTELRDRFEVFGEIEECTVNLRDDGDSYGFITYRYTCDAFAALENGYTLRRSNETDFELYFCGRKQFFKSNYADLDTNSDDFDPASTKSKYDSLDFDSLLKEAQRSLRR
B2: His-tagged PGC-1α (501–797) (domain or fragment, UniProt O70343 501-797, looked up)
chain: NSGLAMDGLFDDSEDESDKLSYPWDGTQPYSLFDVSPSCSSFNSPCRDSVSPPKSLFSQRPQRMRSRSRSFSRHRSCSRSPYSRSRSRSPGSRSSSRSCYYYESSHYRHRTHRNSPLYVRSRSRSPYSRRPRYDSYEAYEHERLKRDEYRKEHEKRESERAKQRERQKQKAIEERRVIYVGKIRPDTTRTELRDRFEVFGEIEECTVNLRDDGDSYGFITYRYTCDAFAALENGYTLRRSNETDFELYFCGRKQFFKSNYADLDTNSDDFDPASTKSKYDSLDFDSLLKEAQRSLRR
B3: His-tagged PGC-1α (334–797) (domain or fragment, UniProt O70343 334-797, looked up)
chain: ECSGTQGSHSTKKGPEQSELYAQLSKSSGLSRGHEERKTKRPSLRLFGDHDYCQSLNSKTDILINISQELQDSRQLDFKDASCDWQGHICSSTDSGQCYLRETLEASKQVSPCSTRKQLQDQEIRAELNKHFGHPCQAVFDDKSDKTSELRDGDFSNEQFSKLPVFINSGLAMDGLFDDSEDESDKLSYPWDGTQPYSLFDVSPSCSSFNSPCRDSVSPPKSLFSQRPQRMRSRSRSFSRHRSCSRSPYSRSRSRSPGSRSSSRSCYYYESSHYRHRTHRNSPLYVRSRSRSPYSRRPRYDSYEAYEHERLKRDEYRKEHEKRESERAKQRERQKQKAIEERRVIYVGKIRPDTTRTELRDRFEVFGEIEECTVNLRDDGDSYGFITYRYTCDAFAALENGYTLRRSNETDFELYFCGRKQFFKSNYADLDTNSDDFDPASTKSKYDSLDFDSLLKEAQRSLRR

Sequence of Flag-tagged full length MED1 (Q15648 whole entry): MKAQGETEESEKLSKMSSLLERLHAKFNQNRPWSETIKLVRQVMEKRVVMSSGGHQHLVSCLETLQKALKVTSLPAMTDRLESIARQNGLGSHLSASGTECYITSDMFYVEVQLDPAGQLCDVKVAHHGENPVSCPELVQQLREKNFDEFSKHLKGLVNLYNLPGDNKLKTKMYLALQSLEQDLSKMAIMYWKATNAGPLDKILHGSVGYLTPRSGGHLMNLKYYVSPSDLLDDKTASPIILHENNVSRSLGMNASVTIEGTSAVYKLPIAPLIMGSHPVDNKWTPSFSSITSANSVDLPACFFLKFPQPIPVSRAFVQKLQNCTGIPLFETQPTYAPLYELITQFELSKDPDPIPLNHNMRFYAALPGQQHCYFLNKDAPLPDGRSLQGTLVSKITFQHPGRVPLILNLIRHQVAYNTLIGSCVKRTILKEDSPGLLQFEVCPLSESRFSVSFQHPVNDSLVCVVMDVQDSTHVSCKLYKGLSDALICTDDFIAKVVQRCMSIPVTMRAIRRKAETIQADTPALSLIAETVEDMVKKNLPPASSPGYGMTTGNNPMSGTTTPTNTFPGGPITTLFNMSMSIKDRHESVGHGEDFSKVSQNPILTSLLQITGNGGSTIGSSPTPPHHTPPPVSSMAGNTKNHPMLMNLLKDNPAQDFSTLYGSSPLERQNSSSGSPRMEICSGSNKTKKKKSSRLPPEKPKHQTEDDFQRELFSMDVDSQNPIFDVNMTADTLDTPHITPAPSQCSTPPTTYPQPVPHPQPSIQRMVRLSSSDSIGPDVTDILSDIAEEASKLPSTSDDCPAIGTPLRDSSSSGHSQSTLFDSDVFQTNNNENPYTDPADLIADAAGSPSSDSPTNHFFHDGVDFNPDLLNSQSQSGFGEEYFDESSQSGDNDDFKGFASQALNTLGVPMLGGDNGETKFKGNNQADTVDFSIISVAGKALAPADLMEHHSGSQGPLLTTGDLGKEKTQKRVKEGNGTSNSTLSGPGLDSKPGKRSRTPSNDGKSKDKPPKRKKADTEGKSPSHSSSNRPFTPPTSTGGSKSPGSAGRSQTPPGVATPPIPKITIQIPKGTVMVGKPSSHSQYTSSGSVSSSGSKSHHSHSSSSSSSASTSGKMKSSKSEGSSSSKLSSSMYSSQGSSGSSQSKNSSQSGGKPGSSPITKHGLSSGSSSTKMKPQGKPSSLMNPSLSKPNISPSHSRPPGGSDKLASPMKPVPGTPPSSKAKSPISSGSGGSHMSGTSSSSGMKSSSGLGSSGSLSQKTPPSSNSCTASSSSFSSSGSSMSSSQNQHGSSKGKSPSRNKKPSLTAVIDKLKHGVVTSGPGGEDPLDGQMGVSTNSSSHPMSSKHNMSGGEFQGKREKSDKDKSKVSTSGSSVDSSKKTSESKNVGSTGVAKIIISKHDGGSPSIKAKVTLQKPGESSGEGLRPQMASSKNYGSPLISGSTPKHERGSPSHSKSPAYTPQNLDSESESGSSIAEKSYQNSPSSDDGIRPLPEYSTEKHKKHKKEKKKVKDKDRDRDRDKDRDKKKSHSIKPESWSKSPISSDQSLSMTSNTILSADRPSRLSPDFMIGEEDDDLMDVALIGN

This experiment addresses Flag-tagged full length MED1 (UniProt Q15648 1-1581). Put plainly: immobilized-template protein recruitment assay.
B1: the binding result is on record as “binds”.
In the case of B2, the binding result is “binds”.
The same measure for B3: “binds”.
